Data reported in US20170022281A1 (AbbVie / Abbott, published 2017).

How the values were obtained:
[1] = biological target: T1, human PRLR (Biacore antigen) (human, UniProt P16471 25-234, limits assumed); assay: SPR Biacore
T1 construct: The construct injected over captured antibody is not described (a soluble form is likely); also called huPRLR
T1 sequence: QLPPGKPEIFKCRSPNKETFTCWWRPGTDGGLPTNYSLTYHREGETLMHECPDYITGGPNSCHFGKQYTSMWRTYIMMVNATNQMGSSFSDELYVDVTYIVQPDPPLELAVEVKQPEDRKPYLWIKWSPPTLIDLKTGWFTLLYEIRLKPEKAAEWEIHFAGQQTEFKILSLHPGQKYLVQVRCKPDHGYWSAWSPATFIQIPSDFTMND

[2] = biological target: T2, cyno PRLR (Biacore antigen) (cyno, UniProt A0A2K5WXK1 25-234); assay: SPR Biacore
T2 construct: also called cyPRLR
T2 sequence: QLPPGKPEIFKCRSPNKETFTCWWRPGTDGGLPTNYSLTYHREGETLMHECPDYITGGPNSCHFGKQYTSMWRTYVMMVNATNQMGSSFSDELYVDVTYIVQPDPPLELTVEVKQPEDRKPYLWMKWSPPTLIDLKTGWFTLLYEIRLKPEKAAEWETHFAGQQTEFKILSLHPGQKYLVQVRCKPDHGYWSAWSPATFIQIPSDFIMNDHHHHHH
Outline: (§1)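 Association rate, dissociation rate and dissociation constant were measured by surface plasmon resonance on a Biacore instrument. PRLR antigen was tested at 600 nM, 66.67 nM and 7.41 nM, a 3-point, 9-fold dilution series. Constants came from a 1:1 binding model fit (local Rmax, mass-transport term included) in Biacore T200 Evaluation Software.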

[3] = biological target: T3, murine PRLR (Biacore antigen) (murine, UniProt Q08501 20-229, limits assumed); assay: SPR Biacore
T3 construct: also called muPRLR
T3 sequence (looked up): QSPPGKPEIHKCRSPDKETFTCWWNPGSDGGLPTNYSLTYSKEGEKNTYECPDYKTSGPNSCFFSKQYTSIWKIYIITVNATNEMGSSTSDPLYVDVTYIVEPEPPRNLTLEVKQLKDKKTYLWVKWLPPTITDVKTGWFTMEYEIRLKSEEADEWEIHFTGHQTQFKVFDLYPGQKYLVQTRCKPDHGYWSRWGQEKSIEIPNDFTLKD
Outline: as §1

[4] = biological target: T1, human PRLR (Biacore antigen); assay: SPR Biacore; remark: listed apart in the source
Outline: as §1

[5] = biological target: T4, cyno PRLR ECD-his6 protein (cyno); assay: ELISA on ECD
T4 chain: T2 sequence
Outline: (§2)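 EC50 values derive from fitted binding curves of antibody serial dilutions (1 h) on captured PRLR. Detection used an HRP-conjugated secondary (1 h), TMB development for 3–5 min, an H₂SO₄ stop and a 450 nm read, with all steps in Tween/PBS pH 7.4 buffer.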

[6] = biological target: T5, human PRLR ECD-Fc fusion protein (human, UniProt P16471 25-233); assay: ELISA on ECD
T5 construct: not shown: Fc region (captured by goat anti-human Fc)
T5 sequence: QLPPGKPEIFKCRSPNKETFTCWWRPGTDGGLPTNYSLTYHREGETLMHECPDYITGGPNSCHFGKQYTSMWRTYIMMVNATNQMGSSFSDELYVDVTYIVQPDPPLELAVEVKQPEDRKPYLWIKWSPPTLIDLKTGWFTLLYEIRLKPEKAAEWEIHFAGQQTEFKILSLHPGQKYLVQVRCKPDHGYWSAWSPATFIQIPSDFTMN
Outline: as §2

human PRLR on cells = biological target: T6, human PRLR on cells (human, UniProt P16471 25-622); assay: cell-based or functional assay
T6 sequence: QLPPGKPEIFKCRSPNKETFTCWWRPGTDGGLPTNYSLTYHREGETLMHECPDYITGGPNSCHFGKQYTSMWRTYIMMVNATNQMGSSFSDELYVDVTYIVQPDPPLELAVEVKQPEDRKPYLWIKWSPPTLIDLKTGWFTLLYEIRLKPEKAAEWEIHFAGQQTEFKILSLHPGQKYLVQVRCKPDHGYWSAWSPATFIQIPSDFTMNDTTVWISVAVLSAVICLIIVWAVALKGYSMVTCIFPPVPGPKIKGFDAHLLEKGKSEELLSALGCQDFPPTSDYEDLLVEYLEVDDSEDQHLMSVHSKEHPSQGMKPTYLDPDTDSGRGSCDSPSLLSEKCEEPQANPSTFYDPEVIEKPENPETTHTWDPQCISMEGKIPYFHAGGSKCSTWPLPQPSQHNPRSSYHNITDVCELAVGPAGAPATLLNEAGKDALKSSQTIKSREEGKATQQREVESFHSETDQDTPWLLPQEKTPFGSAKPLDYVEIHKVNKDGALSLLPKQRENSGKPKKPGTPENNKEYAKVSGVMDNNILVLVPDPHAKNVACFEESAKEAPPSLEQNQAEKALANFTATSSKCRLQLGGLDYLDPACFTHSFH

[7] = biological target: cyno PRLR on Baf3-cyPRLR cells (cyno); assay: cell-based or functional assay
[8] = biological target: T7, mouse PRLR on Baf3-mPRLR cells (mouse, UniProt Q08501 20-608); assay: cell-based or functional assay
T7 sequence (looked up): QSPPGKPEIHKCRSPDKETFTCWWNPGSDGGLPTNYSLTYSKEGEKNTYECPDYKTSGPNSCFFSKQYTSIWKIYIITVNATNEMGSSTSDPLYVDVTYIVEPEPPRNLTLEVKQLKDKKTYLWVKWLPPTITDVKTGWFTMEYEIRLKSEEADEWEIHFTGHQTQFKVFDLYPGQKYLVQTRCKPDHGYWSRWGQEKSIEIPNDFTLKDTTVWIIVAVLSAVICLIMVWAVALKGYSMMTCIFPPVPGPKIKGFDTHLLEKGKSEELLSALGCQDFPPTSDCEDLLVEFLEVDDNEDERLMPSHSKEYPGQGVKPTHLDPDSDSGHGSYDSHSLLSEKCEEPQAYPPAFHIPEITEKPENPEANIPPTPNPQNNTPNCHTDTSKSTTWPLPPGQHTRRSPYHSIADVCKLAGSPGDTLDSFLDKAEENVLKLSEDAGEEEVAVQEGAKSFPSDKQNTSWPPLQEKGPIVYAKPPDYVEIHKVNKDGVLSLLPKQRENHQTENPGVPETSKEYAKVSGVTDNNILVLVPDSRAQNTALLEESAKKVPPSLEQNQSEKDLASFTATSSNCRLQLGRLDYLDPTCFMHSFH

B1: Ab36 (antibody, human IgG1, kappa, V domains shown)
VH: EVQLVQSGAEVKKPGSSVKVSCKASGYTFTSYWIHWVRQAPGQGLEWMGEIDPSDSYTNYNQKFKGRVTITADKSTSTAYMELSSLRSEDTAVYYCARSFFTNWFAYWGQGTLVTVSS
VL: DVVMTQTPLSLSVTPGQPASISCRSSQSLVHSNGNTYLHWYLQKPGQSPQLLIYKVSNRFSGVPDRFSGSGSGTDFTLKISRVEAEDVGVYFCSQSTHVPFTFGGGTKVEIKR
notes: humanized from Ab7; G1; also called Ab4 HC.1 and Ab4 LC.1a
B1 was tested, and the “fold decrease in affinity against chAb7” value [1] was roughly 45 fold, the Kd [2] was 8.51 nM and the koff [2] was 0.00114 s⁻¹. It also gave a kon [2] of 133000 M⁻¹ s⁻¹, a Kd [3] of 1140 nM and a koff [3] of 0.0568 s⁻¹. It also gave a kon [3] of 49800 M⁻¹ s⁻¹, a Kd [4] of 8.13 nM and a koff [4] of 0.00128 s⁻¹. For the same binder, the kon [4] was 157000 M⁻¹ s⁻¹, the EC50 [5] was 0.538 nM and the EC50 [6] was 0.556 nM. The “Baf3-hPRLR proliferation IC50” value (human PRLR on cells) was 0.28 mg/L, the “Baf3-cyPRLR proliferation IC50” value [7] was 0.41 mg/L and the “Baf3-mPRLR proliferation IC50” value [8] was greater than 30 mg/L.
